Series [1] concerns HeLa Kyoto. As to the kind of experiment: solubility in G1/S (NP-40 vs SDS abundance) (log2 ratio); higher = more soluble. The following applies: cell cycle stage: G1/S.
Series [2] concerns HeLa Kyoto. As to the kind of experiment: melting temperature (median over replicates), in situ; higher = more thermally stable.
In series [3] the test system is HeLa Kyoto. As to the kind of experiment: solubility change mitosis vs G1/S (difference of NP-40 vs SDS log2 ratios) (log2 ratio difference); higher = more soluble in mitosis.
For series [4], the system named is HeLa Kyoto. As to the kind of experiment: thermal stability score vs G1/S (z-score of summed log2 fold changes over temperatures); higher = more thermally stable than in G1/S.
[5] abbreviates: cell cycle stage: early G1 (4.5 h after nocodazole release).
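For melting temperature (median over replicates), in situ in this document: HeLa Kyoto cells synchronized by double thymidine or nocodazole block, proteins quantified by TMT10plex mass spectrometry, three independent biological replicates.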
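For solubility change mitosis vs G1/S (difference of NP-40 vs SDS log2 ratios) in this document: synchronized HeLa Kyoto cells (double thymidine block for G1/S, nocodazole release for mitosis), protein amounts in NP-40 versus SDS lysates quantified by mass spectrometry, three biological replicates.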
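For solubility in G1/S (NP-40 vs SDS abundance) in this document: HeLa Kyoto cells arrested at G1/S by double thymidine block, proteins quantified by TMT10plex mass spectrometry in mild NP-40 versus SDS extracts, three biological replicates.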
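For thermal stability score vs G1/S (z-score of summed log2 fold changes over temperatures) in this document: synchronized HeLa Kyoto cells, proteins quantified by TMT10plex mass spectrometry, three biological replicates, mitosis taken 0.5 h after nocodazole release, G1/S directly after double thymidine block.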

As for “MHFSIPETESRSGDSGGSAYVAYNIHVNGVLHCRVRYSQLLGLHEQLRKEYGANVLPAFPPKKLFSLTPAEVEQRREQLEKYMQAVRQDPLLGSSETFNSFLRRAQQETQQVPTEEVSLEVLLSNGQKVLVNVLTSDQTEDVLEAVAAKLDLPDDLIGYFSLFLVREKEDGAFSFVRKLQEFELPYVSVTSLRSQEYKIVLRKSYWDSAYDDDVMENRVGLNLLYAQTVSDIERGWILVTKEQHRQLKSLQEKVSKKEFLRLAQTLRHYGYLRFDACVADFPEKDCPVVVSAGNSELSLQLRLPGQQLREGSFRVTRMRCWRVTSSVPLPSGSTSSPGRGRGEVRLELAFEYLMSKDRLQWVTITSPQAIMMSICLQSMVDELMVKKSGGSIRKMLRRRVGGTLRRSDSQQAVKSPPLLESPDATRESMVKLSSKLSAVSLRGIGSPSTDASASDVHGNFAFEGIGDEDL [SNX17]”, in the series with HeLa Kyoto [1], the “solubility in G1/S (log2)” value is 0.103. Also, the melting temperature with HeLa Kyoto [2] (cell cycle stage: G1/S) stood at 50.9 °C; with HeLa Kyoto [2] (cell cycle stage: mitosis), 51.4 °C. The “solubility change mitosis (log2)” value in the series with HeLa Kyoto [3] was -0.263. For the same sequence, the thermal stability score in the series on HeLa Kyoto [4] (setting [5]) is 1.32; in the series with HeLa Kyoto [4] (cell cycle stage: mitosis), 0.59.

As for “MHKAGLLGLCARAWNSVRMASSGMTRRDPLANKVALVTASTDGIGFAIARRLAQDGAHVVVSSRKQQNVDQAVATLQGEGLSVTGTVCHVGKAEDRERLVATAVKLHGGIDILVSNAAVNPFFGSIMDVTEEVWDKTLDINVKAPALMTKAVVPEMEKRGGGSVVIVSSIAAFSPSPGFSPYNVSKTALLGLTKTLAIELAPRNIRVNCLAPGLIKTSFSRMLWMDKEKEESMKETLRIRRLGEPEDCAGIVSFLCSEDASYITGETVVVGGGTPSRL [DHRS4]”, the “solubility in G1/S (log2)” value in the series on HeLa Kyoto [1] was -0.159. In addition, the melting temperature turned out to be 53.4 °C in the series on HeLa Kyoto [2] (cell cycle stage: G1/S) and 53.5 °C in the series with HeLa Kyoto [2] (cell cycle stage: mitosis). Moreover, the “solubility change mitosis (log2)” value with HeLa Kyoto [3] is 0.0427. Also, the thermal stability score in the series with HeLa Kyoto [4] (setting [5]) was -0.643; in the series with HeLa Kyoto [4] (cell cycle stage: mitosis), -0.663.

Consider “MHPLQCVLQVQRSLGWGPLASVSWLSLRMCRAHSSLSSTMCPSPERQEDGARKDFSSRLAAGPTFQHFLKSASAPQEKLSSEVEDPPPYLMMDELLGRQRKVYLETYGCQMNVNDTEIAWSILQKSGYLRTSNLQEADVILLVTCSIREKAEQTIWNRLHQLKALKTRRPRSRVPLRIGILGCMAERLKEEILNREKMVDILAGPDAYRDLPRLLAVAESGQQAANVLLSLDETYADVMPVQTSASATSAFVSIMRGCDNMCSYCIVPFTRGRERSRPIASILEEVKKLSEQVFLPPRPPKVLGLQGLKEVTLLGQNVNSFRDNSEVQFNSAVPTNLSRGFTTNYKTKQGGLRFAHLLDQVSRVDPEMRIRFTSPHPKDFPDEVLQLIHERDNICKQIHLPAQSGSSRVLEAMRRGYSREAYVELVHHIRESIPGVSLSSDFIAGFCGETEEDHVQTVSLLREVQYNMGFLFAYSMRQKTRAYHRLKDDVPEEVKLRRLEELITIFREEATKANQTSVGCTQLVLVEGLSKRSATDLCGRNDGNLKVIFPDAEMEDVNNPGLRVRAQPGDYVLVKITSASSQTLRGHVLCRTTLRDSSAYC [CDK5RAP1]”, for which the “solubility in G1/S (log2)” value with HeLa Kyoto [1] is -0.0387. In addition, the melting temperature with HeLa Kyoto [2] (cell cycle stage: G1/S) is 50.6 °C; in the series with HeLa Kyoto [2] (cell cycle stage: mitosis), 51 °C. In addition, the “solubility change mitosis (log2)” value with HeLa Kyoto [3] is -0.0868. Besides, the thermal stability score in the series with HeLa Kyoto [4] (setting [5]) stood at 0.115; in the series with HeLa Kyoto [4] (cell cycle stage: mitosis), 0.734.

As for “MHRDSCPLDCKVYVGNLGNNGNKTELERAFGYYGPLRSVWVARNPPGFAFVEFEDPRDAADAVRELDGRTLCGCRVRVELSNGEKRSRNRGPPPSWGRRPRDDYRRRSPPPRRRSPRRRSFSRSRSRSLSRDRRRERSLSRERNHKPSRSFSRSRSRSRSNERK [SRSF3]”, in the series with HeLa Kyoto [1], the “solubility in G1/S (log2)” value was -0.0567. For the same sequence, the values for the melting temperature with HeLa Kyoto [2] (cell cycle stage: G1/S) and in the series on HeLa Kyoto [2] (cell cycle stage: mitosis) were 55.3 °C and 54.2 °C, respectively. The “solubility change mitosis (log2)” value in the series on HeLa Kyoto [3] amounted to 0.503. Besides, the results for the thermal stability score with HeLa Kyoto [4] (setting [5]) and with HeLa Kyoto [4] (cell cycle stage: mitosis) were -0.84 and -4.46, respectively.

As to “MHRRGVGAGAIAKKKLAEAKYKERGTVLAEDQLAQMSKQLDMFKTNLEEFASKHKQEIRKNPEFRVQFQDMCATIGVDPLASGKGFWSEMLGVGDFYYELGVQIIEVCLALKHRNGGLITLEELHQQVLKGRGKFAQDVSQDDLIRAIKKLKALGTGFGIIPVGGTYLIQSVPAELNMDHTVVLQLAEKNGYVTVSEIKASLKWETERARQVLEHLLKEGLAWLDLQAPGEAHYWLPALFTDLYSQEITAEEAREALP [SNF8]”, the “solubility in G1/S (log2)” value in the series with HeLa Kyoto [1] amounted to 0.377. In addition, the melting temperature amounted to 52.9 °C with HeLa Kyoto [2] (cell cycle stage: G1/S) and 51.5 °C in the series with HeLa Kyoto [2] (cell cycle stage: mitosis). The “solubility change mitosis (log2)” value with HeLa Kyoto [3] came to 0.0161. Also, the thermal stability score in the series with HeLa Kyoto [4] (setting [5]) is -0.788; in the series with HeLa Kyoto [4] (cell cycle stage: mitosis) it was -0.397.

With “MIAAPEIPTDFNLLQESETHFSSDTDFEDIEGKNQKQGKGKTCKKGKKGPAEKGKGGNGGGKPPSGPNRMNGHHQQNGVENMMLFEVVKMGKSAMQSVVDDWIESYKHDRDIALLDLINFFIQCSGCKGVVTAEMFRHMQNSEIIRKMTEEFDEDSGDYPLTMAGPQWKKFKSSFCEFIGVLVRQCQYSIIYDEYMMDTVISLLTGLSDSQVRAFRHTSTLAAMKLMTALVNVALNLSINMDNTQRQYEAERNKMIGKRANERLELLLQKRKELQENQDEIENMMNAIFKGVFVHRYRDAIAEIRAICIEEIGIWMKMYSDAFLNDSYLKYVGWTMHDKQGEVRLKCLTALQGLYYNKELNSKLELFTSRFKDRIVSMTLDKEYDVAVQAIKLLTLVLQSSEEVLTAEDCENVYHLVYSAHRPVAVAAGEFLYKKLFSRRDPEEDGMMKRRGRQGPNANLVKTLVFFFLESELHEHAAYLVDSMWDCATELLKDWECMNSLLLEEPLSGEEALTDRQESALIEIMLCTIRQAAECHPPVGRGTGKRVLTAKEKKTQLDDRTKITELFAVALPQLLAKYSVDAEKVTNLLQLPQYFDLEIYTTGRLEKHLDALLRQIRNIVEKHTDTDVLEACSKTYHALCNEEFTIFNRVDISRSQLIDELADKFNRLLEDFLQEGEEPDEDDAYQVLSTLKRITAFHNAHDLSKWDLFACNYKLLKTGIENGDMPEQIVIHALQCTHYVILWQLAKITESSSTKEDLLRLKKQMRVFCQICQHYLTNVNTTVKEQAFTILCDILMIFSHQIMSGGRDMLEPLVYTPDSSLQSELLSFILDHVFIEQDDDNNSADGQQEDEASKIEALHKRRNLLAAFCKLIVYTVVEMNTAADIFKQYMKYYNDYGDIIKETMSKTRQIDKIQCAKTLILSLQQLFNEMIQENGYNFDRSSSTFSGIKELARRFALTFGLDQLKTREAIAMLHKDGIEFAFKEPNPQGESHPPLNLAFLDILSEFSSKLLRQDKRTVYVYLEKFMTFQMSLRREDVWLPLMSYRNSLLAGGDDDTMSVISGISSRGSTVRSKKSKPSTGKRKVVEGMQLSLTEESSSSDSMWLSREQTLHTPVMMQTPQLTSTIMREPKRLRPEDSFMSVYPMQTEHHQTPLDYNRRGTSLMEDDEEPIVEDVMMSSEGRIEDLNEGMDFDTMDIDLPPSKNRRERTELKPDFFDPASIMDESVLGVSMF [STAG2]”, in the series on HeLa Kyoto [1], the “solubility in G1/S (log2)” value is -0.185. Besides, the melting temperature was 52.9 °C in the series with HeLa Kyoto [2] (cell cycle stage: G1/S) and 51.6 °C in the series with HeLa Kyoto [2] (cell cycle stage: mitosis). For the same sequence, in the series on HeLa Kyoto [3], the “solubility change mitosis (log2)” value was -0.0337. Moreover, the thermal stability score with HeLa Kyoto [4] (setting [5]) was -0.506; in the series on HeLa Kyoto [4] (cell cycle stage: mitosis), -0.478.

Regarding “MIAHKQKKTKKKRAWASGQLSTDITTSEMGLKSLSSNSIFDPDYIKELVNDIRKFSHMLLYLKEAIFSDCFKEVIHIRLEELLRVLKSIMNKHQNLNSVDLQNAAEMLTAKVKAVNFTEVNEENKNDLFQEVFSSIETLAFTFGNILTNFLMGDVGNDSLLRLPVSRETKSFENVSVESVDSSSEKGNFSPLELDNVLLKNTDSIELALSYAKTWSKYTKNIVSWVEKKLNLELESTRNMVKLAEATRTNIGIQEFMPLQSLFTNALLNDIESSHLLQQTIAALQANKFVQPLLGRKNEMEKQRKEIKELWKQEQNKMLEAENALKKAKLLCMQRQDEYEKAKSSMFRAEEEHLSSSGGLAKNLNKQLEKKRRLEEEALQKVEEANELYKVCVTNVEERRNDLENTKREILAQLRTLVFQCDLTLKAVTVNLFHMQHLQAASLADSLQSLCDSAKLYDPGQEYSEFVKATNSTEEEKVDGNVNKHLNSSQPSGFGPANSLEDVVRLPDSSNKIEEDRCSNSADITGPSFIRSWTFGMFSDSESTGGSSESRSLDSESISPGDFHRKLPRTPSSGTMSSADDLDEREPPSPSETGPNSLGTFKKTLMSKAALTHKFRKLRSPTKCRDCEGIVVFQGVECEECLLVCHRKCLENLVIICGHQKLPGKIHLFGAEFTQVAKKEPDGIPFILKICASEIENRALCLQGIYRVCGNKIKTEKLCQALENGMHLVDISEFSSHDICDVLKLYLRQLPEPFILFRLYKEFIDLAKEIQHVNEEQETKKNSLEDKKWPNMCIEINRILLKSKDLLRQLPASNFNSLHFLIVHLKRVVDHAEENKMNSKNLGVIFGPSLIRPRPTTAPITISSLAEYSNQARLVEFLITYSQKIFDGSLQPQDVMCSIGVVDQGCFPKPLLSPEERDIERSMKSLFFSSKEDIHTSESESKIFERATSFEESERKQNALGKCDACLSDKAQLLLDQEAESASQKIEDGKTPKPLSLKSDRSTNNVERHTPRTKIRPVSLPVDRLLLASPPNERNGRNMGNVNLDKFCKNPAFEGVNRKDAATTVCSKFNGFDQQTLQKIQDKQYEQNSLTAKTTMIMPSALQEKGVTTSLQISGDHSINATQPSKPYAEPVRSVREASERRSSDSYPLAPVRAPRTLQPQHWTTFYKPHAPIISIRGNEEKPASPSAAVPPGTDHDPHGLVVKSMPDPDKASACPGQATGQPKEDSEELGLPDVNPMCQRPRLKRMQQFEDLEGEIPQFV [ARHGAP29]”, in the series on HeLa Kyoto [1], the “solubility in G1/S (log2)” value was -0.185. For the same sequence, the melting temperature came to 50.5 °C with HeLa Kyoto [2] (cell cycle stage: G1/S) and 51.1 °C in the series on HeLa Kyoto [2] (cell cycle stage: mitosis). The “solubility change mitosis (log2)” value in the series with HeLa Kyoto [3] is -0.0634. In addition, the results for the thermal stability score in the series on HeLa Kyoto [4] (setting [5]) and in the series with HeLa Kyoto [4] (cell cycle stage: mitosis) were 1 and 1.36, respectively.
